According to the supplement of paper PMC11780869:

Test system: Bacillus subtilis
Test: cleaved RNA product abundance (RNA/gDNA barcode ratio) relative to median wild-type variant (ratio to wild type); higher = more accumulation of the downstream cleavage product
Outline: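 Oligos with a 9% error rate were used to build barcoded, mutagenized RNase Y cleavage-site windows within truncated aprE or tetM reporter mRNAs, which were integrated into the B. subtilis chromosome. Cultures were grown in LB at 37°C between OD600 0.0003 and 0.3. Cleaved RNA was gel-selected, reverse transcribed and barcode-sequenced, as were genomic DNA barcodes, and UMIs were collapsed. Cleaved product abundance is the scaled RNA:gDNA barcode ratio, with the median construct carrying the unmutated site as reference.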

[1] = experiment (reporter, strain, medium): exp 8a: truncated aprE reporter, strain BJT201 with 2% xylose (RNase J1 expressed), cleavage site: glnRA (positions -5 to +31 mutated)
[2] = experiment (reporter, strain, medium): exp 4a: truncated aprE reporter, strain BJT201 with 2% xylose (RNase J1 expressed), cleavage site: cggR-gapA (positions -7 to +36 mutated)
[3] = experiment (reporter, strain, medium): exp 2b: truncated aprE reporter, strain BJT200, cleavage site: cggR-gapA (positions -7 to +36 mutated)

Row | Sequence | cleaved RNA product abundance [1] | cleaved RNA product abundance [2] | cleaved RNA product abundance [3]
1 | CGACATGTCCCGCTTCTTTCATTAATCCGTTAGCAACTGTTTTGCTATATACATTTATTTTTTAAGAGGAGGAAT | 2.39 | – | –
2 | CGACATGTCCCGCTTCTTTCATTAATCCGTTAGCAACTTTTTTGCTATATACATTTACCGTTTAAGAGGAGGAAT | 1.51 | – | –
3 | ACAGACGAAGGAGCCGCAAAGAAGTTATTAAATGATGAATAATCCCTCAATATATATATCTCTCACTTATTTAAA | – | 0.13 | –
4 | CGACATGTCCCGCTTCTTTCATTAATACGTTAGCATCTGTTTTGCTATATACATTTACCTTTTAAGAGGAGGAAT | 0.87 | – | –
5 | ACAGACGAAGGAGCCGCAAAGAAGTTCTTAAGGGATGAATAATGCCTCAATATAAATATCTCTCACTTATTTAAA | – | – | 0.0955
6 | CGACATGTCCCGCTTCTTTCATTAATCCGTTAGCAACCGTTTTGGTATATACATTTACCTTTTAAGAGGAGGAAT | 0.187 | – | –
7 | CGACATGTCCCGCTTCTTTCATTAATCCGTTAGCAACTGTTTTGATATATACATTTACATTTTAAGAGGAGGAAT | 0.372 | – | –
8 | CGACATGTCCCGCTTCTTTCATTAATCCGTTAGGAACTATTTTGCTATATACATTTACCTTTTAAGAGGAGGAAT | 0.437 | – | –
9 | ACAGACGAAGGAGCCGCAAAGAAGTTATTAAGTGATGAACAATCCCTCAATATAAATATCTCTCACTTATTTAAA | – | 0.109 | –
10 | CGACATGTCCCGCTTCTTTCATTAATCTGTTAGCAACTGTTTTGCTATATACATTGACCTTTTAAGAGGAGGAAT | 0.991 | – | –
11 | ACAGACGAAGGAGCCGCAAGGAAGTTATTAAGGGATGAATAATCCCTCAATATAAAAATCTCTCACTTATTTAAA | – | 0.35 | –
12 | ACAGACGAAGGAGCCGCAATGAAGTTATTAAGGGATGAATGATCCCTCAATATAAATATCTCTCACTTATTTAAA | – | 0.506 | –
13 | ACAGACGAAGGAGCCGCAAAGTAGTTATTATGGGATGAATAATCCCTCAATATAAATATCTCTCACTTATTTAAA | – | 0.445 | –
14 | ACAGACGAAGGAGCCGCAAAAAAGTTATTAAGGGATGAATAATCCATCAATATAAATATCTCTCACTTATTTAAA | – | 0.307 | 0.17
15 | ACAGACGAAGGAGCCGCAAAGAAGTTATTAAGGGAACAATAATCCCTCAATATAAATATCTCTCACTTATTTAAA | – | 0.79 | –
16 | CGACATGTCCCGCTTCTTTCATTAATCCTTTAGCAAGTGTTTTGCTATATACATTTACCTTTTAAGAGGAGGAAT | 0.82 | – | –
17 | ACAGACGAAGGAGCCGCAAAGAAGTGATTAATGGATGAATAATCCCTCAATATAAATATCTCTCACTTATTTAAA | – | 0.108 | 0.0996
18 | ACAGACGAAGGAGCCGCAAAGAAGTTATTAAGGGATGAAAAATCCCTCAAGATAAATATCTCTCACTTATTTAAA | – | 0.314 | 0.159
19 | CGACATGTCCCGCTTCTTTCATTAATCCGTTAGCAACTGTTTTACTATATACATTTTCCTTTTAAGAGGAGGAAT | 0.458 | – | –
20 | ACAGACGAAGGAGCCGCAAAGAAGTTATTAATGGATGAATAATTCATCAATATAAATATCTCTCACTTATTTAAA | – | 0.316 | –
21 | ACAGACGAAGGAGCCGCAAAGAAGTTATTAAGAGATGAATAATTCCTCAATATAAATATCTCTCACTTATTTAAA | – | 0.106 | 0.0877
22 | CGACATGTCCCGCTTCTTTCATTAATCCATTAGCAACTGTTTTACTATATACATTTACCTTTTAAGAGGAGGAAT | 0.48 | – | –
23 | ACAGACGAAGGAGCCGCAAAAAAGTTATTAAGGGATGAATAATCCCTAAATATAAATATCTCTCACTTATTTAAA | – | 0.765 | 0.57
24 | ACAGACGAAGGAGCCGCAAAGAAGTTATTAAGAGATGAATAATCCCTCGATATAAATATCTCTCACTTATTTAAA | – | 0.0848 | –
25 | CGACATGTCCCGCTTCTTTCATTAATCCGTGAGCAACTGTTTTGCTATATACATTTACTTTTTAAGAGGAGGAAT | 0.477 | – | –
26 | ACAGACGAAGGAGCCGCAAACAAGTTATTAAGGGATGACTAATCCCTCAATATAAATATCTCTCACTTATTTAAA | – | 0.522 | 0.557
27 | CGACATGTCCCGCTTCTTTCATTAATCCGTTAGCAAGTGTTTTGCTATATACATTTAGCTTTTAAGAGGAGGAAT | 1.43 | – | –
